Patent publication US20090029421, “Recombinase polymerase amplification” (published 2009)

Assays:
Experiment in all cases: competition; excess ssDNA oligo titrates gp32 off probe
Conditions in all cases: tags: C-terminal His6
gp32 (Aeh1) = target: T1, gp32 (Aeh1) (Aeromonas phage Aeh1)
T1 chain: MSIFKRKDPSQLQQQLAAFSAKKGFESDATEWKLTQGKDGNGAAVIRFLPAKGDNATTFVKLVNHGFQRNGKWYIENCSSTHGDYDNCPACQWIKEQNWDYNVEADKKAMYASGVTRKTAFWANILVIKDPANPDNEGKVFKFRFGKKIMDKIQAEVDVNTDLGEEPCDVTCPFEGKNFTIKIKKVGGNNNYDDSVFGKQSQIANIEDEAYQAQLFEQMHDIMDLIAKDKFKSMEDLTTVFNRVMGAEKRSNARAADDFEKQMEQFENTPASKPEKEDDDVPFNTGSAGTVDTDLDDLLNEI
Protocol: (§1) In this experiment, the effects of these challenges on Rb69 gp32, T4 gp32 and Aeh1 gp32 were compared.
(§2) An experiment was performed to assess whether gp32 molecules from different species of origin were biochemically distinct from one another. Experimental conditions were as follows: reactions were performed in 50 ul volume; final concentration of probe (SA-Tamra2; 5′-tgttaattgagcaagtgtatagagcattraygabtatgcgtggag-3′ (SEQ ID NO:126), here y=thf, b=BHQ2-dT, r=TAMRA-dT, 3′=Bio-TEG) was 100 nM; Rb69 pg32 was used at final concentration of 80 ng/μl, Nfo was present at 33 ng/μl; after 350 sec either water, dsDNA (550 ng human genomic DNA; i.e. approximately 10× mass of oligonucleotide probe) or ssDNA ([…] oligonucleotide of sequence 5′[…]-3′ (SEQ ID NO:127)) was added; buffer conditions were 20 mM Tris-acetate, 50 mM potassium acetate (pH 7.9), 10 mM Magnesium Acetate, 1 mM Dithiothreitol. Measurements were made in a fluorometer manufactured by Embedded System Engineering (ESE, GmbH) with LED excitation of 520 nm and emission at 585 nm.
(§3) Initially, a concentration of gp32 was established which permitted only a very low cutting activity by Nfo nuclease on the fluorophore/quencher probe. At this concentration the availability of gp32 was limited to a minimal quantity for substantial probe protection, and under these conditions it was possible to assess very sensitively whether gp32 was partitioned away from the probe in competition experiments. After monitoring the slow probe cutting for a while, excess double-stranded DNA or single-stranded oligonucleotides were added to assess whether this affected the distribution of gp32 on the probe. […] Clearly Rb69 and Aeh1 gp32 molecules differentiated and partitioned much more effectively in favour of single-stranded DNA than T4 gp32.

gp32 (T4) = target: T2, gp32 (T4) (Enterobacteria phage T4, UniProt P03695 SEQ:1-301)
T2 sequence: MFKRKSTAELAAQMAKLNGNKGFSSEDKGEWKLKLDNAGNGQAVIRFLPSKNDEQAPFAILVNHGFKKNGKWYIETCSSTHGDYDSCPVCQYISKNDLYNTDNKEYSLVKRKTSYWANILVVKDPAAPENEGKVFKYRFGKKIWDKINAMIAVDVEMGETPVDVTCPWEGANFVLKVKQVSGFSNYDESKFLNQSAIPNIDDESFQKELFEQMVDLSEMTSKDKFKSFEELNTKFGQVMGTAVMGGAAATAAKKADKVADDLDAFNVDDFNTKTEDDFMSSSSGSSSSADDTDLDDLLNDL
Protocol: as §1, §2, §3

gp32 (Rb69) = target: T3, gp32 (Rb69) (Enterobacteria phage RB69)
T3 chain: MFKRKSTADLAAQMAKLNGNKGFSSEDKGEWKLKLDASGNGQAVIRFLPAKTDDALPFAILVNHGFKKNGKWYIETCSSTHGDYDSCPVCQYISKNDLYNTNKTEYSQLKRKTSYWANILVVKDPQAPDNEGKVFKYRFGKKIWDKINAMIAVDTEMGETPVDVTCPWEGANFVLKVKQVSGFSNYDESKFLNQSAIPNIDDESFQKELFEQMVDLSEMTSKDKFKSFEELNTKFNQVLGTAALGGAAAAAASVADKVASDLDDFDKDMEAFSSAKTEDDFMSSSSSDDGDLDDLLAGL
Protocol: as §1, §2, §3

Measured: binding result

CTGTATTAGAAGTACATGCTGATCAAGTGACA (ssDNA) [competitor oligonucleotide]
binds: all assays above
